Molecular target: SpyCatcher-VLP (virus-like particle of SpyCatcher-HBc) (Hepatitis B virus)
Experiment: cryo-EM structure

SpyCatcher-VLP (virus-like particle of SpyCatcher-HBc)
stoichiometry N (monomers per VLP): 180
